Data taken from publication PMC11574045, “A cofactor-induced repressive type of transcription factor condensation can be induced by synthetic peptides to suppress tumorigenesis” (The EMBO Journal, 2024).

B1: RFX4 (protein, UniProt Q33E94 1-735, looked up)
Transcription factor RFX4: MHCGLLEEPDMDSTESWIERCLNESENKRYSSHTSLGNVSNDENEEKENNRASKPHSTPATLQWLEENYEIAEGVCIPRSALYMHYLDFCEKNDTQPVNAASFGKIIRQQFPQLTTRRLGTRGQSKYHYYGIAVKESSQYYDVMYSKKGAAWVSETGKKEVSKQTVAYSPRSKLGTLLPEFPNVKDLNLPASLPEEKVSTFIMMYRTHCQRILDTVIRANFDEVQSFLLHFWQGMPPHMLPVLGSSTVVNIVGVCDSILYKAISGVLMPTVLQALPDSLTQVIRKFAKQLDEWLKVALHDLPENLRNIKFELSRRFSQILRRQTSLNHLCQASRTVIHSADITFQMLEDWRNVDLNSITKQTLYTMEDSRDEHRKLITQLYQEFDHLLEEQSPIESYIEWLDTMVDRCVVKVAAKRQGSLKKVAQQFLLMWSCFGTRVIRDMTLHSAPSFGSFHLIHLMFDDYVLYLLESLHCQERANELMRAMKGEGSTAEVREEIILTEAAAPTPSPVPSFSPAKSATSVEVPPPSSPVSNPSPEYTGLSTTGAMQSYTWSLTYTVTTAAGSPAENSQQLPCMRNTHVPSSSVTHRIPVYPHREEHGYTGSYNYGSYGNQHPHPMQSQYPALPHDTAISGPLHYAPYHRSSAQYPFNSPTSRMEPCLMSSTPRLHPTPVTPRWPEVPSANTCYTSPSVHSARYGNSSDMYTPLTTRRNSEYEHMQHFPGFAYINGEASTGWAK
B2: RHOXF1 (protein, UniProt Q8NHV9 1-184, looked up)
Rhox homeobox family member 1: MARSLVHDTVFYCLSVYQVKISPTPQLGAASSAEGHVGQGAPGLMGNMNPEGGVNHENGMNRDGGMIPEGGGGNQEPRQQPQPPPEEPAQAAMEGPQPENMQPRTRRTKFTLLQVEELESVFRHTQYPDVPTRRELAENLGVTEDKVRVWFKNKRARCRRHQRELMLANELRADPDDCVYIVVD
B3: R-LIM (protein, UniProt Q9NVW2 1-624, looked up)
E3 ubiquitin-protein ligase …: MENSDSNDKGSGDQSAAQRRSQMDRLDREEAFYQFVNNLSEEDYRLMRDNNLLGTPGESTEEELLRRLQQIKEGPPPQNSDENRGGDSSDDVSNGDSIIDWLNSVRQTGNTTRSGQRGNQSWRAVSRTNPNSGDFRFSLEINVNRNNGSQNSENENEPSARRSSGENVENNSQRQVENPRSESTSARPSRSERNSTEALTEVPPTRGQRRARSRSPDHRRTRARAERSRSPLHPMSEIPRRSHHSISSQTFEHPLVNETEGSSRTRHHVTLRQQISGPELLSRGLFAASGTRNASQGAGSSDTAASGESTGSGQRPPTIVLDLQVRRVRPGEYRQRDSIASRTRSRSQTPNNTVTYESERGGFRRTFSRSERAGVRTYVSTIRIPIRRILNTGLSETTSVAIQTMLRQIMTGFGELSYFMYSDSDSEPTGSVSNRNMERAESRSGRGGSGGGSSSGSSSSSSSSSSSSSSSSSSSSPSSSSGGESSETSSDLFEGSNEGSSSSGSSGARREGRHRAPVTFDESGSLPFLSLAQFFLLNEDDDDQPRGLTKEQIDNLAMRSFGENDALKTCSVCITEYTEGNKLRKLPCSHEYHVHCIDRWLSENSTCPICRRAVLASGNRESVV
B4: RHOXF2 (protein, UniProt Q9BQY4 1-288, looked up)
Rhox homeobox family member 2: MEPPDQCSQYMTSLLSPAVDDEKELQDMNAMVLSLTEEVKEEEEDAQPEPEQGTAAGEKLKSAGAQGGEEKDGGGEEKDGGGAGVPGHLWEGDLEGTSGSDGNVEDSDQSEKEPGQQYSRPQGAVGGLEPGNAQQPNVHAFTPLQLQELERIFQREQFPSEFLRRRLARSMNVTELAVQIWFENRRAKWRRHQRALMARNMLPFMAVGQPVMVTAAEAITAPLFISGMRDDYFWDHSHSSSLCFPMPPFPPPSLPLPLMLLPPMPPAGQAEFGPFPFVIVPSFTFPNV
B5: RNF14 (protein, UniProt Q9UBS8 1-474, looked up)
E3 ubiquitin-protein ligase …: MSSEDREAQEDELLALASIYDGDEFRKAESVQGGETRIYLDLPQNFKIFVSGNSNECLQNSGFEYTICFLPPLVLNFELPPDYPSSSPPSFTLSGKWLSPTQLSALCKHLDNLWEEHRGSVVLFAWMQFLKEETLAYLNIVSPFELKIGSQKKVQRRTAQASPNTELDFGGAAGSDVDQEEIVDERAVQDVESLSNLIQEILDFDQAQQIKCFNSKLFLCSICFCEKLGSECMYFLECRHVYCKACLKDYFEIQIRDGQVQCLNCPEPKCPSVATPGQVKELVEAELFARYDRLLLQSSLDLMADVVYCPRPCCQLPVMQEPGCTMGICSSCNFAFCTLCRLTYHGVSPCKVTAEKLMDLRNEYLQADEANKRLLDQRYGKRVIQKALEEMESKEWLEKNSKSCPCCGTPIEKLDGCNKMTCTGCMQYFCWICMGSLSRANPYKHFNDPGSPCFNRLFYAVDVDDDIWEDEVED
B6: BATF2 (protein, UniProt Q8N1L9 1-274, looked up)
Basic leucine zipper …: MHLCGGNGLLTQTDPKEQQRQLKKQKNRAAAQRSRQKHTDKADALHQQHESLEKDNLALRKEIQSLQAELAWWSRTLHVHERLCPMDCASCSAPGLLGCWDQAEGLLGPGPQGQHGCREQLELFQTPGSCYPAQPLSPGPQPHDSPSLLQCPLPSLSLGPAVVAEPPVQLSPSPLLFASHTGSSLQGSSSKLSALQPSLTAQTAPPQPLELEHPTRGKLGSSPDNPSSALGLARLQSREHKPALSAATWQGLVVDPSPHPLLAFPLLSSAQVHF
B7: RFC1 (protein, UniProt P35251 1-1148, looked up)
Replication factor C subunit 1: MDIRKFFGVIPSGKKLVSETVKKNEKTKSDEETLKAKKGIKEIKVNSSRKEDDFKQKQPSKKKRIIYDSDSESEETLQVKNAKKPPEKLPVSSKPGKISRQDPVTYISETDEEDDFMCKKAASKSKENGRSTNSHLGTSNMKKNEENTKTKNKPLSPIKLTPTSVLDYFGTGSVQRSNKKMVASKRKELSQNTDESGLNDEAIAKQLQLDEDAELERQLHEDEEFARTLAMLDEEPKTKKARKDTEAGETFSSVQANLSKAEKHKYPHKVKTAQVSDERKSYSPRKQSKYESSKESQQHSKSSADKIGEVSSPKASSKLAIMKRKEESSYKEIEPVASKRKENAIKLKGETKTPKKTKSSPAKKESVSPEDSEKKRTNYQAYRSYLNREGPKALGSKEIPKGAENCLEGLIFVITGVLESIERDEAKSLIERYGGKVTGNVSKKTNYLVMGRDSGQSKSDKAAALGTKIIDEDGLLNLIRTMPGKKSKYEIAVETEMKKESKLERTPQKNVQGKRKISPSKKESESKKSRPTSKRDSLAKTIKKETDVFWKSLDFKEQVAEETSGDSKARNLADDSSENKVENLLWVDKYKPTSLKTIIGQQGDQSCANKLLRWLRNWQKSSSEDKKHAAKFGKFSGKDDGSSFKAALLSGPPGVGKTTTASLVCQELGYSYVELNASDTRSKSSLKAIVAESLNNTSIKGFYSNGAASSVSTKHALIMDEVDGMAGNEDRGGIQELIGLIKHTKIPIICMCNDRNHPKIRSLVHYCFDLRFQRPRVEQIKGAMMSIAFKEGLKIPPPAMNEIILGANQDIRQVLHNLSMWCARSKALTYDQAKADSHRAKKDIKMGPFDVARKVFAAGEETAHMSLVDKSDLFFHDYSIAPLFVQENYIHVKPVAAGGDMKKHLMLLSRAADSICDGDLVDSQIRSKQNWSLLPAQAIYASVLPGELMRGYMTQFPTFPSWLGKHSSTGKHDRIVQDLALHMSLRTYSSKRTVNMDYLSLLRDALVQPLTSQGVDGVQDVVALMDTYYLMKEDFENIMEISSWGGKPSPFSKLDPKVKAAFTRAYNKEAHLTPYSLQAIKASRHSTSPSLDSEYNEELNEDDSQSDEKDQDAIETDAMIKKKTKSSKPSKPEKDKEPRKGKGKSSKK
B8: RFX1 (protein, UniProt P22670 1-979, looked up)
MHC class II regulatory …: MATQAYTELQAAPPPSQPPQAPPQAQPQPPPPPPPAAPQPPQPPTAAATPQPQYVTELQSPQPQAQPPGGQKQYVTELPAVPAPSQPTGAPTPSPAPQQYIVVTVSEGAMRASETVSEASPGSTASQTGVPTQVVQQVQGTQQRLLVQTSVQAKPGHVSPLQLTNIQVPQQALPTQRLVVQSAAPGSKGGQVSLTVHGTQQVHSPPEQSPVQANSSSSKTAGAPTGTVPQQLQVHGVQQSVPVTQERSVVQATPQAPKPGPVQPLTVQGLQPVHVAQEVQQLQQVPVPHVYSSQVQYVEGGDASYTASAIRSSTYSYPETPLYTQTASTSYYEAAGTATQVSTPATSQAVASSGSMPMYVSGSQVVASSTSTGAGASNSSGGGGSGGGGGGGGGGGGGGSGSTGGGGSGAGTYVIQGGYMLGSASQSYSHTTRASPATVQWLLDNYETAEGVSLPRSTLYCHYLLHCQEQKLEPVNAASFGKLIRSVFMGLRTRRLGTRGNSKYHYYGLRIKASSPLLRLMEDQQHMAMRGQPFSQKQRLKPIQKMEGMTNGVAVGQQPSTGLSDISAQVQQYQQFLDASRSLPDFTELDLQGKVLPEGVGPGDIKAFQVLYREHCEAIVDVMVNLQFTLVETLWKTFWRYNLSQPSEAPPLAVHDEAEKRLPKAILVLLSKFEPVLQWTKHCDNVLYQGLVEILIPDVLRPIPSALTQAIRNFAKSLESWLTHAMVNIPEEMLRVKVAAAGAFAQTLRRYTSLNHLAQAARAVLQNTAQINQMLSDLNRVDFANVQEQASWVCRCEDRVVQRLEQDFKVTLQQQNSLEQWAAWLDGVVSQVLKPYQGSAGFPKAAKLFLLKWSFYSSMVIRDLTLRSAASFGSFHLIRLLYDEYMYYLIEHRVAQAKGETPIAVMGEFANLATSLNPLDPDKDEEEEEEEESEDELPQDISLAAGGESPALGPETLEPPAKLARTDARGLFVQALPSS
B9: RFXDC1 (protein, UniProt Q8HWS3 1-928, looked up)
DNA-binding protein RFX6: MAKVPELEDTFLQAQPAPQLSPGIQEDCCVQLLGKGLLVYPEETVYLAAEGQPGGEQGGGEKGEDPELPGAVKSEMHLNNGNFSSEEEDADNHDSKTKAADQYLSQKKTITQIVKDKKKQTQLTLQWLEENYIVCEGVCLPRCILYAHYLDFCRKEKLEPACAATFGKTIRQKFPLLTTRRLGTRGHSKYHYYGIGIKESSAYYHSVYSGKGLTRFSGSKLKNEGGFTRKYSLSSKTGTLLPEFPSAQHLVYQGCISKDKVDTLIMMYKTHCQCILDNAINGNFEEIQHFLLHFWQGMPDHLLPLLENPVIIDIFCVCDSILYKVLTDVLIPATMQEMPESLLADIRNFAKNWEQWVVSSLENLPEALTDKKIPIVRRFVSSLKRQTSFLHLAQIARPALFDQHVVNSMVSDIERVDLNSIGSQALLTISGSTDTESGIYTEHDSITVFQELKDLLKKNATVEAFIEWLDTVVEQRVIKTSKQNGRSLKKRAQDFLLKWSFFGARVMHNLTLNNASSFGSFHLIRMLLDEYILLAMETQFNNDKEQELQNLLDKYMKNSDASKAAFTASPSSCFLANRNKGSMVSSDAVKNESHVETTYLPLPSSQPGGLGPALHQFPAGNTDNMPLTGQMELSQIAGHLMTPPISPAMASRGSVINQGPMAGRPPSVGPVLSAPSHCSTYPEPIYPTLPQANHDFYSTSSNYQTVFRAQPHSTSGLYPHHTEHGRCMAWTEQQLSRDFFSGSCAGSPYNSRPPSSYGPSLQAQDSHNMQFLNTGSFNFLSNTGAASCQGATLPPNSPNGYYGSNINYPESHRLGSMVNQHVSVISSIRSLPPYSDIHDPLNILDDSGRKQTSSFYTDTSSPVACRTPVLASSLQTPIPSSSSQCMYGTSNQYPAQETLDSHGTSSREMVSSLPPINTVFMGTAAGGT

Tested on: HEK293FT cells transfected with TF library
Assay: Screening of TF condensates based on fluorescent puncta
Type: cell-based
Settings: Figure 1B numerical data; TF library screen, one value per transcriptional factor
In short: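 Each TF construct was introduced into HEK293FT cells using PEI at 4.8 μg/ml; glucose deprivation versus normal medium lasted 12 h. Automated confocal-style imaging of tagged TF staining, 50 fields per well, gave the puncta data.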

Molecule | Z score of condensed fraction
B1 | -0.3239
B2 | -0.9364
B3 | -0.6236
B4 | 1.459
B5 | 0.4543
B6 | -1.083
B7 | 2.906
B8 | -0.4637
B9 | 3.216
